Substrate: CCC=O
Assay: purified protein
Assay type: biochemical, Escherichia coli
Settings: 50 mM LiHPA, 2.4 mM TPP, 9 mM MgCl2, 250 mM NaCl, 50 mM Tris-HCl, pH 7.0, 21 °C

B1: transketolase (TK) (Escherichia coli K-12; D469S) (protein)
chain: MSSRKELANAIRALSMDAVQKAKSGHPGAPMGMADIAEVLWRDFLKHNPQNPSWADRDRFVLSNGHGSMLIYSLLHLTGYDLPMEELKNFRQLHSKTPGHPEVGYTAGVETTTGPLGQGIANAVGMAIAEKTLAAQFNRPGHDIVDHYTYAFMGDGCMMEGISHEVCSLAGTLKLGKLIAFYDDNGISIDGHVEGWFTDDTAMRFEAYGWHVIRDIDGHDAASIKRAVEEARAVTDKPSLLMCKTIIGFGSPNKAGTHDSHGAPLGDAEIALTREQLGWKYAPFEIPSEIYAQWDAKEAGQAKESAWNEKFAAYAKAYPQEAAEFTRRMKGEMPSDFDAKAKEFIAKLQANPAKIASRKASQNAIEAFGPLLPEFLGGSADLAPSNLTLWSGSKAINEDAAGNYIHYGVREFGMTAIANGISLHGGFLPYTSTFLMFVEYARNAVRMAALMKQRQVMVYTHDSIGLGESGPTHQPVEQVASLRVTPNMSTWRPCDQVESAVAWKYGVERQDGPTALILSRQNLAQQERTEEQLANIARGGYVLKDCAGQPELIFIATGSEVELAVAAYEKLTAEGVKARVVSMPSTDAFDKQDAAYRESVLPKAVTARVAVEAGIADYWYKYVGLNGAIVGMTTFGESAPAELLFEEFGFTVDNVVAKAKELL
notes: 680 residues; homodimer
Km: 70.8 mM | kcat: 0.952 ± 0.0567 s⁻¹ | kcat/Km: 13.5 ± 0.333 M⁻¹ s⁻¹
